# Measurements published in PMC1513511.
# T1: H6MobC221 (pC221 MobC) (plasmid pC221, UniProt Q6V0Y1 1-132)
# T1 sequence: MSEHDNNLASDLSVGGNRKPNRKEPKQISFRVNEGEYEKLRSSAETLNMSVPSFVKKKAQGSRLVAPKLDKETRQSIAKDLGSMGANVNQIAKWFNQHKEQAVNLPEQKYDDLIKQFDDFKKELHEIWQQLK
# Key:
# H6MobC221 (pC221 MobC) [1] = target: T1, H6MobC221 (pC221 MobC); assay: SPR
# H6MobC221 (pC221 MobC) [2] = target: T1, H6MobC221 (pC221 MobC); assay: SPR; remark: listed apart in the source
Binder,binding result (H6MobC221 (pC221 MobC) [1]),Kd (H6MobC221 (pC221 MobC) [2])
21Pmut (randomized mcb2 oligoduplex) (dsDNA) DNA 1: AACGAGAGTAGGTCAATATA DNA 2: TATATTGACCTACTCTCGTT,no binding,
21P (mcb2 oligoduplex) (dsDNA) DNA 1: AACGAAGTGGCTAGAATATA DNA 2: TATATTCTAGCCACTTCGTT,,~1800 nM
